Target: YmgB (purified, biotinylated) (Escherichia coli) (UniProt P75993)
Test: BLI; biotinylated YmgB or YmgB^R74G immobilised on streptavidin biosensors, SpoT^TGS-Helical 2-50 μM as analyte; Blitz, 25 °C; 50 mM Tris-HCl pH 8.0, 500 mM NaCl, 500 mM KCl, 2 mM β-mercaptoethanol, 2% glycerol, BSA 1 mg/ml; KD from steady-state responses, one site model

Chain of UniProt P75993 (P75993 whole entry): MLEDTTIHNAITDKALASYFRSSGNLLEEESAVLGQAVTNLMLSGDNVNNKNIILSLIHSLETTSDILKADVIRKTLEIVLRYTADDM

## SpoT^TGS-Helical (purified) (domain or fragment)
  Kd: 8.73 µM
